Measured values from patent US20120288878A1.

Columns and labels:
[1] = molecular target: mutant membrane-bound TNFα on stably transfected CHO cells (B-220 cells) (UniProt P01375); assay: FACS, gate P4: CHO cells bound to anti-CD19 beads (FIG. 3 middle panel)
[2] = molecular target: mutant membrane-bound TNFα on stably transfected CHO cells (B-220 cells) (UniProt P01375); assay: FACS, gate P4: CHO cells bound to anti-CD19 beads, mixed beads (FIG. 4)

UniProt P01375, sequence (P01375 other isoform, or with tags, fused parts or gaps mutant limits assumed): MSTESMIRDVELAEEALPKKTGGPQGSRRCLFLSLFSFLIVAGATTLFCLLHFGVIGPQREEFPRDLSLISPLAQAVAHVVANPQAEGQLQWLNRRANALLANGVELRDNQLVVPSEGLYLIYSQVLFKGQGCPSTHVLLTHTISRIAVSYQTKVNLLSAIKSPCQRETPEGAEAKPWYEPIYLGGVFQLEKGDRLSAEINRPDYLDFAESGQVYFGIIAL

# Events [1]: 6 events
# Events [2]: 2 events
Substance: APC-labeled unrelated antibody (anti-CD19) coated on beads
